The subject of the series is Irr (Rhodobacter sphaeroides 2.4.1). Nature of the series: EMSA. The note with it: Mn2+ favored complex formation (1 mM MnCl2); Mn2+ in Kd assay not stated; EMSA: 20 mM TB pH 7.8, 5% glycerol, 1 mM DTT, 1 ug salmon sperm DNA, 0.1 mg/ml BSA, with or without 1 mM MnCl2, 15 ul, ~3 fmol probe, 30 min at 32 C; 6% PAGE ….

As to ccpA upstream region, the dissociation constant Kd was 0.9 µM.

mbfA upstream region registered a Kd of 0.8 µM.

For the origin of these results see publication PMC3413700.
